Assay results taken from a protein production outcome set (Wang et al. 2014).

Experiment: label from the status in PepcDB records
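Also: failed if final PepcDB status was selected cloned or expressed and not failed if soluble or beyond.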

| Sequence | protein production |
| --- | --- |
| MKFYNREKEVAELKRVQELAFTQNSRMIVVTGRRRIGKTSLIKEALKGTPTVYLFIGRKAESILVTDFVKIVRETLSIFVPEGIPTFTNLMQYLFEVGKTRAFNIVIDEFQEFYNIRPDVFSDMQNLWDEYKQETKINLVISGSVYSLMQKIFTDHNEPLFGRADNILCLRAFKIGVLKQIMEDLASGYSNDDLLALYTLTGGIPKYVELFCDNQALTIDKMYDFVFSENSLFIDEGRNLLITEFGKNYGTYFSILSEIANGHYTQGEIESALGGTAIGGYLSKLENVYNLITRERPIFAKPGTKKNVRYVIGDNFLNFWFKYIEQNRSYIELQNFDDLRQLAKADYPTYSGRVLEKYFKQKLAETGGFKEIGSWWETKSSIGKQRINSYEIDIVALKSSGKKALIAEVKRVPENNYSHTVFMEKVEHLKQKEMSKYDIETQVLGLKDMLEHHHHHH | failed |
| MKGDRHCIVIIDMLNDFIGPNAPLRCPDGEKIVPNLQKLVEFAHENGINVVFVQEAHRKNDADFRVRPVHAVKGTWGSDFIPELRPDEEKGDYIVQKRRHSAFAYTDLDLYLREEKIDTVVVTGVWTNVCVRSTASDALYHAYNVIAISDCCASANEEMHQAGLRDMALFAEVMTLEEYMKEWPNREGAKK | not failed |
| MKGDRTLSCMIKTDRGEICIDPAEPILHIIGKKYAIFIVSVLGNDNTRKNFNDLMRAVPGISSTMLSARLHEMNECGLIERHEGDIVTYELTERGREIRKRMLPLIEYLADAD | failed |
| MKGENAMEHHTSVLSLMVVVAIAFFVPLLLQRFKLKALPVVVAEIIAGIFVGKSGFNIIEPDIWLQVLSTLGFIFLMFLSGLEIDFSIFKQKGKKNTTNEPNTFQAASIIFLFIFILSYALSLLFVWLGFVDNAMFMTLIISTISLGVVVPTLKENNLGKTAIGQIILLVAVIADLVTMILLAVFVGLNSESGQSMWLLLLLFGAGIVIYFVAKRFKNIPYLDSLKAGSVQIDTRAVFALILILVGLSESVGAENILGAFLAGVLVSLLSPNEDMVEKLDSIGYGFFIPIFFVMVGVNLEVWSIFKEPSSMLMIPILIVGLFISKLLPSLVLRKWYPRNIVLGSAILLTSTLSLVIAAAQIGEKLEIISPSLSVSLILSAVITCIFAPILFKKMFPKVETPKPKVAIIGASRITLPLSLDLKREDYDVTLYMMRQNKINDEEATSHDFPIVKLDDITIASLTEQTAFDADRVVVATSDDEQNLLLAEHAKELGVEHVIASVEDPLLQEKATQEHIAVFSTINSTRILLRALIDKPSLVRLITTANETVREVELRSNKYNGVALRRLPFLGDVLVIQIYRGNKALIPHGDTRLQHGDTLLVTGSKEHIDTLKNILE | failed |
| MKGGLYMKLTKKQLKEYIEDYKKSDDILINLYIETYEFYCRLRDELKNSDLMIEHTNKAGASNIVKNPLSIELTKTVQTLNNLLKSMGLTAAQRKKIVQEEGGFGDY | failed |
| MKGGTIQISWHDGKPVLTVDFHPISGLLATAGADYDIKLWLINSGQAEKKVPSVSYQSSLTYHGCAVNTIRFSPSGELLASGADGGELFIWKLHPSETNQSWKVHKSLSFHRKDVLDLQWSPDDAYLISGSVDNSCIIWDVNKGSVHQILDAHCHYVQGVAWDPLAKYVASLSSDRTCRIYANKPQTKSKGVEKMNYVCQHVIMKADQQRGDETKTIKTHLFHDETLPSFFRRLSWSPDGSFLLIPAGSFKVSPTSEAVNATYVFSRKDLSRPALQLPGASKPVVVVRFCPVAFKLRGSSSEEGFFKLPYRLVFAIATLNSVYIYDTECVAPIAVLAGLHYAAITDITWSPNASYLALSSQDGYCTLVEFEDKELGEAVSISGLLLVLSLLNLPEPD | failed |
| MKGLERESHFTLNENAMFFECAYSCDNALFLQLDDRSFFITDSRYTQEAKESVQPKNGVLAEVVESSDLVQSAIDLIVKSSVKKLFFDPNQVNLQTYKRLNSALGDKVALEGVPSYHRQKRIIKNEHEIQLLKKSQALNVEAFENFAEYVKKIFDEKESLSERYLQHKVKDFLTREGVYDLSFEPILALNANASKPHALPSAKDFLKAEHSILLDMGIKYERYCSDRTRTAFFDPKDFVFKREQSFKDKERQKIYDIVKEAQEKAISGIRAGMTGKEADSLARGVISDYGYGQYFTHSTGHGIGLDIHELPYISSRSETILEEGMVFSVEPGIYIPGFFGVRIEDLVVIKNSRSELL | failed |
| MKGLFKNKSRLPGEIVRQTRDLIALAESEEEETDARNSKRLGICAELCRNIRDLKSILYGNGEAEPVPEACLLLTQEFFRADTLRPLIKSIPKLDLEARKDATQIVANLQKQQVEFRLVASEYLESNLDVIDSLVEGIDHDHELALHYTGMLKECVRHQVVAKYILESKNLEKFFDYVQLPYFDVATDASKIFRELLTRHKSTVAEYLAKNYEWFFAEYNTKLLEKGSYFTKRQASKLLGDVLMDRSNSGVMVKYVSSLDNLRIMMNLLREPTKNIQLEAFHIFKLFVANENKPEDIVAILVANRTKILRLFADLKPEKEDVGFETDKALVMNEIATLSLLDIKTADR | failed |
| MKGLLPLAWFLACSVPAVQGGLLDLKSMIEKVTGKNALTNYGFYGCYCGWGGRGTPKDGTDWCCWAHDHCYGRLEEKGCNIRTQSYKYRFAWGVVTCEPGPFCHVNLCACDRKLVYCLKRNLRSYNPQYQYFPNILCS | failed |
| MKGMKYHDYIWDLGGTLLDNYETSTAAFVETLALYGITQDHDSVYQALKVSTPFAIETFAPNLENFLEKYKENEARELEHPILFEGVSDLLEDISNQGGRHFLVSHRNDQVLEILEKTSIAAYFTEVVTSSSGFKRKPNPESMLYLREKYQISSGLVIGDRPIDIEAGQAAGLDTHLFTSIVNLRQVLDI | not failed |
| MKHEWRKFEKELYGVKAKPIFLEVEEQRFITIKGKGNPNDQDFSNRVSALYALAYGIKMAYKQAMKTEQDDRAVTDFAVYPLEGLWQQAKDAKEDTLEKDKLSYTIMIRQPEFITKELVDQALDRVKIKKPNSFYESISFESIKDGKCIQVLHIGSYDDEPQSFAKMDAFAKEHGLKRSSDIHREIYLSNAQRTEKSKLKTILRYQVEEK | failed |
| MKHMEKFANHFGYNRMFAKDQLTLGVHIPIENYQFHAPTMEKQVELVQKAEQYGFTGVWLRDVLLQDPDFGDPATGQIYDMMIYLTYLASKTEKIAFGTSATVLSLRHPLRVAKEIATLDQLFPERIMLGVSSGDRRADFKALGVSHETRGEKFREAFAYLEEILYKNFPSIQSTLGEVHGANLVPKPSKRVPTFITGFSQQNMEWFAEHGDGWMYYPRSPVHQAGAIGQWRELVEDYHPDVFKPFIQPMHLDLSEDPNERPTPIRLGYRTGRKALIELLDIYKSIGVNHLFLALFDGQRPADEVLDELGEEVLPHFPAL | not failed |
| MKHPLQDMFTSAIEAVARDSGWAELSAVGSYLAKNDPSFDPRNWGHGRLSQMVKKLDFLTVQESRNGSKLHSEIRLRHDGLEHHHHHH | not failed |
| MKHYFSCLKGDTIKAIFLVCLAVGVVGMSYGSLAMAYGFPLWVPFVLSIFVLAGASEFMFIGIVASGGNPLAAAAAGLLVNARHVPFGVTVRDLVGTRAASFFGCHIMNDESVVFGLSQKTPEQRKAAYWLCGLGVALFWPIGTLIGAGVGKLLPAPETIGLDAVFPAILLALVIPAFKNRTTLIRGCSGAALSLAAVPFVAAGLPVLLSLLGLLARKK | failed |
| MKIALIGASGYVGSALLKEALSRGHHVTALVSRPERIAAQANLAAAKVDVQDSAQLAEQLKGFDAVLSAFSGHAQAEQFDYFVKGIRSIIAAAKAAQAPRLLVVGGAGSLEVAPGVQLVDTPEFPEQWKASALGAREALNLLRAETELNWTLLSPSAMLQPGQRTGQFRLGKDQLLVDAEGNSHISVEDYAVAMIDELEKGEHQRSRFTVGYLEHHHHHH | not failed |
| MKIATYNVRVDTEYDQDWQWSFRKEAVCQLINFHDWSLCCIQEVRPNQVRDLKAYTTFTCLSAEREGDGQGEGLAILYNEQKVQAIDTGYFWLSETPQQPSIHPEAGCPRIALWGLFKETTQNTPFLVINVHLDHISAHARLAGMTVILEELHDKIAQYPTLLMGDFNAESGEEVHQLVQKKFQDSKNLATHYGPRGTFQNFTYTKPWAELEEIDYIYVKGWQVQQTASLTDSIDGRFPSDHFPLEAEV | not failed |
| MKIAVLGATGRAGSAIVAEARRRGHEVLAVVRDPQKAADRLGATVATLVKEPLVLTEADLDSVDAVVDALSVPWGSGRGYLHLDFATHLVSLLRNSDTLAVFILGSASLAMPGADHPMILDFPESAASQPWYDGALYQYYEYQFLQMNANVNWIGISPSEAFPSGPATSYVAGKDTLLVGEDGQSHITTGNMALAILDQLEHPTAIRDRIVVRDADLEHHHHHH | not failed |
| MKIDILDKGFVELVDVMGNDLSAVRAARVSFDMGLKDEERDRHLIEYLMKHGHETPFEHIVFTFHVKAPIFVARQWFRHRIASYNELSGRYSKLSYEFYIPSPERLEGYKTTIPPERVTEKISEIVDKAYRTYLELIESGVPREVARIVLPLNLYTRFFWTVNARSLMNFLNLRADSHAQWEIQQYALAIARIFKEKCPWTFEAFLKYAYKGDILKEVQV | not failed |
| MKIDLIISADDIKEEKVKNKTAVVIDMLRATSVITTALNNGCKRVVPVLTVEEALKKVKEYGKDAILGGERKGLKIEGFDFSNSPMEYTEDVVKGKTLIMTTTNGTRAIKGSETARDILIGSVLNGEAVAEKIVELNNDVVIVNAGTYGEFSIDDFICSGYIINCVMDRMKKLELTDAATTAQYVYKTNEDIKGFVKYAKHYKRIMELGLKKDFEYCCKKDIVKLVPQYTNGEIL | not failed |
| MKIGIMSDTHDHLPNIRKAIEIFNDENVETVIHCGDFVSLFVIKEFENLNANIIATYGNNDGERCKLKEWLKDINEENIIDDFISVEIDDLKFFITHGHHQSVLEMAIKSGLYDVVIYGHTHERVFEEVDDVLVINPGECCGYLTGIPTIGILDTEKKEYREIVLE | not failed |
| MKIGVIQASTRTDLNQLLFEAVKQAAGNQHEIVNFGVFPQETENYSYVEVAIMISLLIETGAIDFMVSGCSSGQGMMMACNSLPGLQAGFIQTPQDAFLFGRINNGNVASLSLGLNFGWAGELNLQYALNELFHGEFGIGYPPEVAERKREEAQLLLTLNDITKKSFLEIIDQLDKALLFKILKRKDLTAYLFDYGSNSLLLERLQFFRN | failed |
| MKIIAFYLPQFHQIKENDRWWGKGFTEWTNTKSAQPLFSGHYQPREPYQDFYYDLTTPSVRKWQAEIAKAYGIYGFCYYHYWFKGKRLLETPFNEVLKMKEPDFPFCLSWANEPWTKSWDGLDKHILMPQDYGDISDWKEHFDYLLQAFQDERYIYIDDKPLFIIYRPGHIPDCEKMLNYWNALARANGLKGIYFAETLNSFPLPNINGFDASIQFEPFYTIAHDSSSDINKVIYDSDMQLNVWDYDKVWMYILQRSLPKKKTFPGAFVDWDNTARRKNANSSIFVGSTPEKFTIYLSKQIHRTYSFYNSEFLFINAWNEWAEGTYLEPDKKYGFSYLEGVKNAIDRGMKAYKKDESFLEHHHHHH | not failed |
| MKIIGIIQARTGSKRLKNKVLLKLGDRCILEILLERLKKSKKLDDIIVATTIKKEDNAIVELCNSLGVNVFRGSEKDVLDRFYNASKFYSGDVIVRITGDNPLTSIELIDKQVEYLLKNNFDYVSTKNIILGLSSEVFTFDALEKAWKNAKEKYQREHVTPYIYENPNLFKVFYLEPPEYLKREGIRLTIDTIKDFKLYLELQKHFDLINVDIRQIIDFLDKNPQIKNINSNVRQKSYREVEE | failed |
| MKIILANPRGFCAGVDRAISIVELALEIHGAPIYVRHEVVHNRFVVNGLRERGAIFVEELSEVPDGAIVIFSAHGVSQAVRQEAKDRNLKVFDATCPLVTKVHMQVARASRKGTKAILIGHKGHPEVEGTMGQYSNEDGGIFLIEKVEDIARLPMQENDNLTFMTQTTLSLDDTAETIAALKEKYPAIQGPHKNDICYATTNRQEAVRELAKLSDLVLVVGSKNSSNSNRLAELASRMGVKSQLLDEPADIQADWFNDVKTIGITAGASAPEELGQSIISRLKRFGAN | failed |
